Literature values, collected in publication PMC7687380.

Molecular target: LRP1 (Homo sapiens) (UniProt Q07954)
UniProt Q07954, sequence (Q07954 20-4544): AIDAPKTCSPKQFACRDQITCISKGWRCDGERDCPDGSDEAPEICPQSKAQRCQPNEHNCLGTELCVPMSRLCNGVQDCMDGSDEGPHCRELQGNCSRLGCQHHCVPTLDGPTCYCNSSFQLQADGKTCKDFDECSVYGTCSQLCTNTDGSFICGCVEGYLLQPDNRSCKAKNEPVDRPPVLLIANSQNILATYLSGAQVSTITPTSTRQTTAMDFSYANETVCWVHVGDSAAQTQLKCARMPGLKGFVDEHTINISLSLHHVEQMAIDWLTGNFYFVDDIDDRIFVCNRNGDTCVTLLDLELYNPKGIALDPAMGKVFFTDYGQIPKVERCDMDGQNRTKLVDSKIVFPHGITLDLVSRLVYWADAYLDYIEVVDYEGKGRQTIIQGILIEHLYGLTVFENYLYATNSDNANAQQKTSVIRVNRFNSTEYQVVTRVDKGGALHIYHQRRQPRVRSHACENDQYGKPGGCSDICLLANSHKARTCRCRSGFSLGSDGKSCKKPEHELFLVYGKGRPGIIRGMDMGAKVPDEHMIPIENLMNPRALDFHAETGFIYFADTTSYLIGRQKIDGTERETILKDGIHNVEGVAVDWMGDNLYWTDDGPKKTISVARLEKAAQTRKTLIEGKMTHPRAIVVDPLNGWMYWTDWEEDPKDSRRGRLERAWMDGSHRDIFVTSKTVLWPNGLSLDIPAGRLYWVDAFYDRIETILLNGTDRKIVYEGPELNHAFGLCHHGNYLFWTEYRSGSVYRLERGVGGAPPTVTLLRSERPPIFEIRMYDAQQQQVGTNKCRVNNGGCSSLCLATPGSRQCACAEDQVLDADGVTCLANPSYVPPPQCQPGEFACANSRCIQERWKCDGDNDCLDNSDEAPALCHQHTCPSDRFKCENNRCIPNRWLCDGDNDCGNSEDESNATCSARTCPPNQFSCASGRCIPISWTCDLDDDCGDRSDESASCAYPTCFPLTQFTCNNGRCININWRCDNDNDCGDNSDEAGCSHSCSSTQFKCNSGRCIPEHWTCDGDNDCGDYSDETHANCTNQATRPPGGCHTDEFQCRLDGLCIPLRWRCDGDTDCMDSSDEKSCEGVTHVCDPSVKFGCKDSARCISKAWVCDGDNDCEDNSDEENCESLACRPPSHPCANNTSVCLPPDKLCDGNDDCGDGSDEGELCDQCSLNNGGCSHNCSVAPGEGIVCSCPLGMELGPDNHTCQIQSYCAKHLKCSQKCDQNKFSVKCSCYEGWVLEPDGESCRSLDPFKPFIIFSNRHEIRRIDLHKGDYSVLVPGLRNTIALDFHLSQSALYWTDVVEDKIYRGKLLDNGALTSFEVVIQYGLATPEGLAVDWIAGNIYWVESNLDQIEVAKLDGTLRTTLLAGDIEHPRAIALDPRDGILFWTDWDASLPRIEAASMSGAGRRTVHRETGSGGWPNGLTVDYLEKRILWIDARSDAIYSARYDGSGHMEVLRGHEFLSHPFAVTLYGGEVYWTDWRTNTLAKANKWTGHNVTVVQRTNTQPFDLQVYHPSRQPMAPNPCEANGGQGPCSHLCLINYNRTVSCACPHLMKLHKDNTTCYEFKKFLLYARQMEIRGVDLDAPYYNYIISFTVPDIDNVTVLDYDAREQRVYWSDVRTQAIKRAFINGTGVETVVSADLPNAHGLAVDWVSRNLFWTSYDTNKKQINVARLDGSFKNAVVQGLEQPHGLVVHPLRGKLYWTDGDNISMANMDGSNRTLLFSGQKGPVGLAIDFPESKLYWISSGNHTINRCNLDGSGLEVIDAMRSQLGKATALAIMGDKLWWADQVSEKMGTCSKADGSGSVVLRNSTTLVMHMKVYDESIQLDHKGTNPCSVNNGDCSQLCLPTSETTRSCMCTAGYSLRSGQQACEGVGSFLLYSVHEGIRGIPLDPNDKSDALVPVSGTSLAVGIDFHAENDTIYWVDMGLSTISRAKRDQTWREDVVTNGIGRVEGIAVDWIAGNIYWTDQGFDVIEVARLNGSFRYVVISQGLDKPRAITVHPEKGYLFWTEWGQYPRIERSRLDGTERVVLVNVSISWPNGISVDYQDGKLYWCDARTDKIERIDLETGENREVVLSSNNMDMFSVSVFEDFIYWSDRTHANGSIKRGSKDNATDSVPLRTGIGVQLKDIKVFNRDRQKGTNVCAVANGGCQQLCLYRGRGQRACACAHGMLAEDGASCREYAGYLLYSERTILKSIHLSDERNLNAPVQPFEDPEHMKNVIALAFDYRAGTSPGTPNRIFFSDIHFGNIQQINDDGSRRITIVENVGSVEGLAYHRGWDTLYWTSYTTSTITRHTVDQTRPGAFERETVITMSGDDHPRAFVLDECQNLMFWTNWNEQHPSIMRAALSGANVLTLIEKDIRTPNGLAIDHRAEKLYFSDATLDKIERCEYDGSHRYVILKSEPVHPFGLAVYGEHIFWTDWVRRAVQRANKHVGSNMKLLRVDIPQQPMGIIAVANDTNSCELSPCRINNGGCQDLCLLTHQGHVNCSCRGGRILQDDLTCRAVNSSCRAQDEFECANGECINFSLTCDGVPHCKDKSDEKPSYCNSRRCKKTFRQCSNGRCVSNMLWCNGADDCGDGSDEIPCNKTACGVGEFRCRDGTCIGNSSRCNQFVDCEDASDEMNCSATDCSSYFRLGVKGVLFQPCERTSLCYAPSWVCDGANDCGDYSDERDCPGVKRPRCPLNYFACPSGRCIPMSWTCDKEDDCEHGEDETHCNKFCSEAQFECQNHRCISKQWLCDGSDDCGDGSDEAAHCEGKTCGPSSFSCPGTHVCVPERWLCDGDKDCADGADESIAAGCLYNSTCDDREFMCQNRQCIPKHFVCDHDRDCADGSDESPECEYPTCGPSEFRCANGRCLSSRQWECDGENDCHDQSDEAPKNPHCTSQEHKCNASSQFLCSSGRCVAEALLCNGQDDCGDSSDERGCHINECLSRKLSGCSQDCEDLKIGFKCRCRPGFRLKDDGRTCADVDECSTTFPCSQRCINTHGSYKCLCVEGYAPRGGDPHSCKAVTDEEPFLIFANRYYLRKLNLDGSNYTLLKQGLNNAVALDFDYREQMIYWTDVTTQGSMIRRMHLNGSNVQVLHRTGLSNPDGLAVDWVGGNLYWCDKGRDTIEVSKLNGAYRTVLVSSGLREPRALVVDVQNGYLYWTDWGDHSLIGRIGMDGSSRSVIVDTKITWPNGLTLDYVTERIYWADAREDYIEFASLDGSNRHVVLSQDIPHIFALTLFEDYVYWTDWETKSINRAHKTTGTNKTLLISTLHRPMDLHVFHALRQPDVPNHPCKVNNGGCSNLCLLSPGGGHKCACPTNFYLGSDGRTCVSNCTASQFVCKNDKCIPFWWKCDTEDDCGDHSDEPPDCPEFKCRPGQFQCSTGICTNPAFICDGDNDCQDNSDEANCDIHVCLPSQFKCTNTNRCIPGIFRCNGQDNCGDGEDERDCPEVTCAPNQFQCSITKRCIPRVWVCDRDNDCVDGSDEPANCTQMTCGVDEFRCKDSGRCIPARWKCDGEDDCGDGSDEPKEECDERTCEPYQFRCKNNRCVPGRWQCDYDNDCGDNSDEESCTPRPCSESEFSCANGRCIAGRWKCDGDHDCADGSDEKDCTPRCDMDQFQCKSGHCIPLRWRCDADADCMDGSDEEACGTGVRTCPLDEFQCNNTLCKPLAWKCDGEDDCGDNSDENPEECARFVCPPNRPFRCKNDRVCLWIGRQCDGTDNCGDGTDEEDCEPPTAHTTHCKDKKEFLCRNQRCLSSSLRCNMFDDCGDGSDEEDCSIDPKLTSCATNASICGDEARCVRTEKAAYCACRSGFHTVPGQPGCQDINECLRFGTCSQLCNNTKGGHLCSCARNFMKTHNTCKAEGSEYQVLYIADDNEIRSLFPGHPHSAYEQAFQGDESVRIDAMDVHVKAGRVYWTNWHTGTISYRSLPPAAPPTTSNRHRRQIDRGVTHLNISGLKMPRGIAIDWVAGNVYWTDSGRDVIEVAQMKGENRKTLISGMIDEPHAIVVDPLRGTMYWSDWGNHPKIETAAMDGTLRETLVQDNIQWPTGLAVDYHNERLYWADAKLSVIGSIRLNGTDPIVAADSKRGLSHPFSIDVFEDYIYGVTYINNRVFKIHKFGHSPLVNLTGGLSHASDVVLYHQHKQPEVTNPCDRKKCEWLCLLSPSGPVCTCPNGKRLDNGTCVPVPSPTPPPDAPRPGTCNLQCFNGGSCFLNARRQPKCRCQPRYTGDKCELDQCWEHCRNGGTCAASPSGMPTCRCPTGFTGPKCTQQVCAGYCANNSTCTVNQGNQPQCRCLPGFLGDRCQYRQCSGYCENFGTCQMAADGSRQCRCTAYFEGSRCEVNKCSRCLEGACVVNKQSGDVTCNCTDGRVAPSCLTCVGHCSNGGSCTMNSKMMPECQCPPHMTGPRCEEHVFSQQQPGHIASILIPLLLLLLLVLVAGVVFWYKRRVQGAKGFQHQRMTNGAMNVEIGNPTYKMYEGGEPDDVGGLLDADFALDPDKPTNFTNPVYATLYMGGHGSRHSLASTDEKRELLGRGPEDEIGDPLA

For RAP (from UniProt P30533), the Kd is listed as 9 nM.
